Consider two molecules from patent US20220169722A1 (WUXI BIOLOGICS IRELAND, published 2022).

Like-named read-outs stand apart in the source and are kept apart here.

The target in test [1] is T1, human LAG-3 on transfected cells (human, UniProt P18627 23-525).
T1 construct: whole, on cells; Flp-In-293 or CHO-K1 cells transfected with full length human LAG-3; also called cell surface human LAG-3
T1 sequence (looked up): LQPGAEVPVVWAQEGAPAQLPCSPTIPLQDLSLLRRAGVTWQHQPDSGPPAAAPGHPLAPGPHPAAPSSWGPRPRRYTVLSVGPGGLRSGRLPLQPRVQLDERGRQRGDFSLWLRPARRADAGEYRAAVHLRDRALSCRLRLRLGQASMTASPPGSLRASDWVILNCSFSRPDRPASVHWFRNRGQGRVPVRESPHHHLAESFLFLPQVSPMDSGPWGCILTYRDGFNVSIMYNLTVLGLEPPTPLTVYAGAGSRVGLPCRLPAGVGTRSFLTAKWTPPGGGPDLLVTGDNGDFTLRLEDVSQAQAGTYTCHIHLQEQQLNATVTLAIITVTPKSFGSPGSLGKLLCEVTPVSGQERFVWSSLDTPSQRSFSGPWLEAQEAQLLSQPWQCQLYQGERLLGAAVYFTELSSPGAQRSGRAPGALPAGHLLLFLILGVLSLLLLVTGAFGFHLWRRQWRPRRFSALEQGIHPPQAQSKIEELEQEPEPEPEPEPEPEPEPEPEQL
Kind of test: FACS, serial dilutions on human LAG-3 transfected cells, PE-labeled secondary antibody. A general note: A flow cytometer gives signals particle by particle.

Test [2] has as its target T1, human LAG-3 on transfected cells. The test can be described thus: FACS on human LAG-3 transfected cells with serum-treated antibody, PE-labeled goat anti-human IgG. How it is done:
On indicated time points (day 0, day 1, day 4, day 7 and day 14), an aliquot of serum treated sample were removed from the incubator and snap frozen in liquid N2, and then stored at −80° C. until ready for test. All the samples were quickly thawed prior to the stability test. […] MFI of the cells was measured by a flow cytometry and analyzed by FlowJo.

Test [3] deals with T2, mouse Fc (mFc)-tagged human LAG-3 (human, UniProt P18627 23-450).
T2 construct: extracellular domain
T2 sequence (looked up): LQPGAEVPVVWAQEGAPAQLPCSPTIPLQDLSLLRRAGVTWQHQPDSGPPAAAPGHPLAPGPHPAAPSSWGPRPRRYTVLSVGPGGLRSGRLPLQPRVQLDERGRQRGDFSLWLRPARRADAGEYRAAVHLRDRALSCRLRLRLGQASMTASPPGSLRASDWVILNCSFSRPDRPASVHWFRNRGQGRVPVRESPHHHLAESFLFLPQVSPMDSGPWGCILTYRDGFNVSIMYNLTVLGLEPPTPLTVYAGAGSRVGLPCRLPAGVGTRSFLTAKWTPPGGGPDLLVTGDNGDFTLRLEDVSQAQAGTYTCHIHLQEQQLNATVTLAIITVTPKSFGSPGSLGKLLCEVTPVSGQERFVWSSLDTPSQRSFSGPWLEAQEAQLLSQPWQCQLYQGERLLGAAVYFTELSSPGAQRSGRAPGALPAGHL
Kind of test: ELISA blocking: antibody pre-mixed with mFc-tagged human LAG-3, added to plates coated with human Galectin-3 (blocked ligand); detection goat anti-mouse IgG Fc-HRP. How it is done:
(§1) 96-well plates were coated with human LSECtin or Galectin-3 at 0.5 μg/ml overnight at 4° C., respectively. […] After blocking and washing, the mixture was transferred to the plates and incubated at room temperature for 1 h. The plates were then washed and subsequently incubated with the secondary antibody goat-anti Mouse IgG Fc-HRP for 1 h. After washing, TMB substrate was added and the color reaction was stopped by 2M HCl. The absorbance at 450 nm was read using a microplate reader.
In general terms: ELISA stands for enzyme-linked immunosorbent assay.

Test [4] addresses T2, mouse Fc (mFc)-tagged human LAG-3. Kind of test: FACS blocking: antibody pre-mixed with mFc-tagged human LAG-3; blocked ligand: cell surface human MHC-II (paragraph 254 says 'on A20 cells' for this figure); the column head on the sheet reads 'EC50 (nM)', the text calls the value IC50. How it is done: The mixture was transferred into the 96-well plates seeded with Raji cells. Goat anti-mouse IgG Fc-PE antibody was used to detect the binding of LAG-3 protein to Raji cells. The mean fluorescence intensity (MFI) was evaluated by flow cytometry and analyzed by FlowJo.

Test [5] has as its target T3, cynomolgus LAG-3 on transfected cells (cynomolgus monkey).
T3 construct: whole, on cells; 293F cells transfected with cynomolgus LAG-3; also called cell surface cynomolgus LAG-3; monkey LAG-3
The test can be described thus: FACS affinity on transfected cells.

The target of test [6] is T1, human LAG-3 on transfected cells. The test can be described thus: FACS affinity on transfected cells.
In test [7] the target is T2, mouse Fc (mFc)-tagged human LAG-3. The test can be described thus: ELISA blocking: antibody pre-mixed with mFc-tagged human LAG-3, added to plates coated with human LSECtin (blocked ligand); detection goat anti-mouse IgG Fc-HRP. How it is done:
as §1

The target in test [8] is T3, cynomolgus LAG-3 on transfected cells. The test can be described thus: FACS affinity on transfected cells. The source holds these as a separate data set.
Test [9] concerns the target T4, mouse LAG-3 on transfected cells (mouse, UniProt Q61790 24-521).
T4 construct: whole, on cells; Flp-In-CHO cells transfected with mouse LAG-3; also called cell surface mouse LAG-3; murine LAG-3
T4 sequence (looked up): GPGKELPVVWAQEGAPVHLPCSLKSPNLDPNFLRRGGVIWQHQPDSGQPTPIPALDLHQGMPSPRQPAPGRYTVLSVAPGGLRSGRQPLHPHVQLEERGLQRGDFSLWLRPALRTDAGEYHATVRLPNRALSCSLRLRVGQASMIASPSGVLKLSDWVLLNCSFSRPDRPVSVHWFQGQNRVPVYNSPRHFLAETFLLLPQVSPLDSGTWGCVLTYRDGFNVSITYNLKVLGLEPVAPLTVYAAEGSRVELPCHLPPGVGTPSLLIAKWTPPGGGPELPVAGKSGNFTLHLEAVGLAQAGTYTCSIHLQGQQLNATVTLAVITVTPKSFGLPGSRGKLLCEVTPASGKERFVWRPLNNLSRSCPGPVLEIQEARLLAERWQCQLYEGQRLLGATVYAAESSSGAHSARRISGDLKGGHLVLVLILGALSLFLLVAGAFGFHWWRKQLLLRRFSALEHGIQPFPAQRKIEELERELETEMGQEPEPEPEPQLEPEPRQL
Kind of test: FACS affinity on transfected cells.

The target in test [10] is T2, mouse Fc (mFc)-tagged human LAG-3. Kind of test: ELISA blocking: antibody pre-mixed with mFc-tagged human LAG-3, added to plates coated with human LSECtin (blocked ligand); detection goat anti-mouse IgG Fc-HRP. How it is done: as §1
The source holds these as a separate data set.

B1: W3396-R2-1 (Fc fusion)
VHH: QVQLVESGGGVVQPGGSLRLSCAASGLTLSQYTMGWFRQAPGKERELVAAIHWTSSVTDYADSVYGRFTISRDDSKNTGYLQMNSLRAEDTAVYYCAATWYYTHRGSFDYWGQGTLVTVSS
Turning to B1, it took 0.364 nM to reach a half-maximal effect in [1] (EC50). The EC50 (read off the curve) (usually the concentration at which the effect is half-maximal) in [2] was about 0.1 nM. Further, the IC50 (usually the point on the concentration scale where inhibition reaches its midpoint) in test [3] turned out to be 1.86 nM; in test [4], 1.78 nM; in test [7], 1.81 nM; in test [10], 0.642 nM. Moreover, the Bmax was found to be 380 pM in test [5], 54 pM in [6], 280 pM in test [8] and 57 pM in test [9]. Besides, the Kd – broadly, the constant that tells how readily two partners part at equilibrium – stood at 6.3 nM in test [5], 0.46 nM in test [6], 3.3 nM in test [8] and 0.057 nM in [9].

B2: W3396-R2-13 (Fc fusion)
VHH: QVQLVESGGGVVQPGGSLRLSCAASGLTLSQYTMGWFRQAPGKERELVAAIHWTSSVTDYADSVRGRFTISRDDSKNTGYLQMNSLRAEDTAVYYCAATWYYTHRGSFDYWGQGTLVTVSS
As for B2, the “EC50 (read off the curve)” value in test [2] was about 0.2 nM. Besides, in [8], the Bmax is 310 pM and the Kd turned out to be 5 nM. Further, in test [9], the Bmax came to 53 pM and the Kd was 0.054 nM. Also, in test [10], the IC50 was determined as 0.797 nM.
